Source: patent US20250043302A1, “MUTATED HYDROXYPHENYLPYRUVATE DIOXYGENASE POLYPEPTIDE, AND CODING GENE AND USE THEREOF” (BEIJING DABEINONG BIOTECHNOLOGY CO., LTD., priority 2021, published 2025)

Experiments:
Assay type in all cases: in vivo
[1] = test system: Arabidopsis thaliana T1 plants; experiment: Topramezone tolerance of transgenic Arabidopsis thaliana T1 plants (spray, bleached leaf area grade, damage score); details: 7 DAT, Table 4; for Classification and statistics of the grade of pesticide damage: Grade 0 / Classification and statistics of the grade of pesticide damage: Grade 1 / Classification and statistics of the grade of pesticide damage: Grade 2 / Classification and statistics of the grade of pesticide damage: Grade 3: number of plants; for Scores: pesticide damage score 0-100
Summary of the method: (§1)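 Damage was assessed by bleaching grade (0 none; 1 <50%; 2 >50%; 3 100% of leaf area) one week after spraying. Sprays on 18-day-old T1 and wild-type plants used field-rate multiples: topramezone 25–200, isoxaflutole 35–280, mesotrione 52.5–420 g ai/ha.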

[2] = test system: Arabidopsis thaliana T1 plants; experiment: Isoxaflutole tolerance of transgenic Arabidopsis thaliana T1 plants (spray, bleached leaf area grade, damage score); design: Scores (pesticide damage): scale not given here; details: spray, Arabidopsis thaliana T1 plants; for Classification and statistics of the grade of pesticide damage: Grade 0 (number of plants) / Classification and statistics of the grade of pesticide damage: Grade 1 (number of plants) / Classification and statistics of the grade of pesticide damage: Grade 2 (number of plants) / Classification and statistics of the grade of pesticide damage: Grade 3 (number of plants): 16 plants
Summary of the method: as §1

[3] = test system: Arabidopsis thaliana T1 plants; experiment: Mesotrione tolerance of transgenic Arabidopsis thaliana T1 plants (spray, bleached leaf area grade, damage score); design: Scores: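 damage score 0-100 computed as Σ(N×S)/(T×M)×100 over grades 0-3 with higher meaning more damage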; details: Arabidopsis thaliana T1 plants; for Grade 0 (classification and statistics of the grade of pesticide damage; number of plants) / Grade 1 (classification and statistics of the grade of pesticide damage; number of plants) / Grade 2 (classification and statistics of the grade of pesticide damage; number of plants) / Grade 3 (classification and statistics of the grade of pesticide damage; number of plants): 16 plants
Summary of the method: as §1

[4] = isoxaflutole 35 g ai/ha (0.5x field concentration)
[5] = isoxaflutole 70 g ai/ha (1x field concentration)

Molecule	Classification and statistics of the grade of pesticide damage: Grade 0 ([1]; topramezone 25 g ai/ha (1×))	Classification and statistics of the grade of pesticide damage: Grade 1 ([1]; topramezone 25 g ai/ha (1×))	Classification and statistics of the grade of pesticide damage: Grade 2 ([1]; topramezone 25 g ai/ha (1×))	Classification and statistics of the grade of pesticide damage: Grade 3 ([1]; topramezone 25 g ai/ha (1×))	Classification and statistics of the grade of pesticide damage: Grade 0 ([1]; topramezone 100 g ai/ha (4×))	Classification and statistics of the grade of pesticide damage: Grade 1 ([1]; topramezone 100 g ai/ha (4×))	Classification and statistics of the grade of pesticide damage: Grade 2 ([1]; topramezone 100 g ai/ha (4×))	Classification and statistics of the grade of pesticide damage: Grade 3 ([1]; topramezone 100 g ai/ha (4×))	Scores ([1]; topramezone 25 g ai/ha (1×))	Scores ([1]; topramezone 100 g ai/ha (4×))	Resistance evaluation ([1]; topramezone 25 g ai/ha (1×))	Resistance evaluation ([1]; topramezone 100 g ai/ha (4×))	Resistance evaluation [2, 4]	Scores (pesticide damage) [2, 4]	Classification and statistics of the grade of pesticide damage: Grade 0 (number of plants) [2, 4]	Classification and statistics of the grade of pesticide damage: Grade 1 (number of plants) [2, 4]	Classification and statistics of the grade of pesticide damage: Grade 2 (number of plants) [2, 4]	Classification and statistics of the grade of pesticide damage: Grade 3 (number of plants) [2, 4]	Resistance evaluation [2, 5]	Scores (pesticide damage) [2, 5]	other results
GmHPPD-02: nucleotide sequence encoding wild-type Glycine max HPPD; vector DBN11746 (nucleic acid, GmHPPD-02 Nucleotide Sequence, vector DBN11746) DNA: ATGCCAATGTACACACCATCGCTCTCCGCCCCTTCTTCCAACCATATTCAGCCATCCGTGACTCTGCCTCTCTACATCACAACCACCAAGTTGAACCTGAAGCAGCAGCACCATACGACTCCTATGCCTATACCCATGTGCAATGAGATCCAAGCACAGGCTCAGGCACAAGCTCAACCCGGATTCAAACTCGTGGGATTCAAGAACTTCGTCCGTACCAATCCAAAATCTGACCGCTTCCAGGTGAACAGATTCCACCACATAGAGTTTTGGTGTACTGATGCAACGAATGCTTCGAGGAGGTTTTCATGGGGCTTAGGCATGCCGATTGTAGCAAAGTCAGACCTTTCTACAGGGAACCAAATTCATGCAAGCTATCTGCTCCGCTCAGGTGATTTGTCTTTCTTGTTCTCAGCTCCATATTCTCCATCATTATCTGCTGGGTCATCAGCAGCATCTAGTGCGTCGATCCCTAGCTTTGATGCCGCCACCTGCCTCGCCTTCGCCGCCAAACATGGATTTGGTGTTCGCGCCATTGCTCTTGAGGTTGCCGATGCCGAGGCTGCTTTTAGCGCCTCCGTCGCCAAGGGAGCTGAGCCTGCGTCACCTCCTGTTCTTGTTGATGATCGAACTGGTTTTGCTGAAGTGCGTCTTTACGGCGACGTGGTGCTCAGATATGTTAGTTACAAGGATGCTGCTCCTCAAGCGCCGCACGCTGATCCTTCAAGATGGTTTCTTCCGGGGTTTGAGGCCGCTGCTAGTTCATCTTCCTTCCCGGAGTTGGATTACGGCATACGGCGGCTTGACCATGCTGTCGGCAATGTTCCTGAGCTTGCTCCGGCGGTACGGTACTTGAAAGGTTTCTCCGGGTTCCATGAATTTGCAGAGTTCACGGCGGAAGATGTTGGAACAAGTGAAAGCGGATTGAATTCTGTTGTTTTGGCCAACAACAGTGAAACTGTTCTGCTCCCCCTCAATGAACCAGTTTATGGCACAAAGCGCAAGAGCCAGATTGAAACATATCTCGAGCACAATGAAGGCGCCGGCGTCCAGCATCTTGCTTTGGTGACTCATGATATCTTCACAACACTTAGGGAGATGAGGAAGAGGAGTTTCCTCGGCGGGTTTGAATTCATGCCCAGTCCCCCGCCGACCTACTATGCAAATCTGCACAACAGGGCTGCAGATGTGCTGACTGTAGACCAGATCAAGCAATGTGAAGAACTTGGAATTTTAGTGGATAGAGACGACCAAGGTACACTACTTCAAATATTCACCAAACCAGTCGGTGACAGACCAACAATTTTCATCGAGATTATACAAAGAATTGGATGCATGGTCGAGGATGAAGAAGGGAAGGTGTACCAGAAGGGAGCATGTGGTGGTTTTGGGAAAGGAAATTTTTCTGAGCTGTTTAAATCCATCGAGGAATATGAGAAAACCTTAGAAGCTAAAAGAACTGCATGA	0	0	0	16	0	0	0	16	100	100	non-resistant (non-resistant plants (scores 68-100))	non-resistant (non-resistant plants (scores 68-100))	Non-resistant	100	0	0	0	16	Non-resistant	100	Classification and statistics of the grade of pesticide damage: Grade 0 (number of plants) [2, 5]: 0; Classification and statistics of the grade of pesticide damage: Grade 1 (number of plants) [2, 5]: 0; Classification and statistics of the grade of pesticide damage: Grade 2 (number of plants) [2, 5]: 0; Classification and statistics of the grade of pesticide damage: Grade 3 (number of plants) [2, 5]: 16; Resistance evaluation ([3]; mesotrione 52.5 g ai/ha): Non-resistant; Scores ([3]; mesotrione 52.5 g ai/ha): 100; Grade 0 (classification and statistics of the grade of pesticide damage; number of plants) ([3]; mesotrione 52.5 g ai/ha): 0; Grade 1 (classification and statistics of the grade of pesticide damage; number of plants) ([3]; mesotrione 52.5 g ai/ha): 0; Grade 2 (classification and statistics of the grade of pesticide damage; number of plants) ([3]; mesotrione 52.5 g ai/ha): 0; Grade 3 (classification and statistics of the grade of pesticide damage; number of plants) ([3]; mesotrione 52.5 g ai/ha): 16; Resistance evaluation ([3]; mesotrione 105 g ai/ha): Non-resistant; Scores ([3]; mesotrione 105 g ai/ha): 100; Grade 0 (classification and statistics of the grade of pesticide damage; number of plants) ([3]; mesotrione 105 g ai/ha): 0; Grade 1 (classification and statistics of the grade of pesticide damage; number of plants) ([3]; mesotrione 105 g ai/ha): 0; Grade 2 (classification and statistics of the grade of pesticide damage; number of plants) ([3]; mesotrione 105 g ai/ha): 0; Grade 3 (classification and statistics of the grade of pesticide damage; number of plants) ([3]; mesotrione 105 g ai/ha): 16
GmHPPDm-F372A-F383W-02: nucleotide sequence encoding Glycine max HPPD with F372A+F383W; vector DBN11749 (nucleic acid, GmHPPDm-F372A-F383W-02 Nucleotide Sequence, vector DBN11749) DNA: ATGCCAATGTACACACCATCGCTCTCCGCCCCTTCTTCCAACCATATTCAGCCATCCGTGACTCTGCCTCTCTACATCACAACCACCAAGTTGAACCTGAAGCAGCAGCACCATACGACTCCTATGCCTATACCCATGTGCAATGAGATCCAAGCACAGGCTCAGGCACAAGCTCAACCCGGATTCAAACTCGTGGGATTCAAGAACTTCGTCCGTACCAATCCAAAATCTGACCGCTTCCAGGTGAACAGATTCCACCACATAGAGTTTTGGTGTACTGATGCAACGAATGCTTCGAGGAGGTTTTCATGGGGCTTAGGCATGCCGATTGTAGCAAAGTCAGACCTTTCTACAGGGAACCAAATTCATGCAAGCTATCTGCTCCGCTCAGGTGATTTGTCTTTCTTGTTCTCAGCTCCATATTCTCCATCATTATCTGCTGGGTCATCAGCAGCATCTAGTGCGTCGATCCCTAGCTTTGATGCCGCCACCTGCCTCGCCTTCGCCGCCAAACATGGATTTGGTGTTCGCGCCATTGCTCTTGAGGTTGCCGATGCCGAGGCTGCTTTTAGCGCCTCCGTCGCCAAGGGAGCTGAGCCTGCGTCACCTCCTGTTCTTGTTGATGATCGAACTGGTTTTGCTGAAGTGCGTCTTTACGGCGACGTGGTGCTCAGATATGTTAGTTACAAGGATGCTGCTCCTCAAGCGCCGCACGCTGATCCTTCAAGATGGTTTCTTCCGGGGTTTGAGGCCGCTGCTAGTTCATCTTCCTTCCCGGAGTTGGATTACGGCATACGGCGGCTTGACCATGCTGTCGGCAATGTTCCTGAGCTTGCTCCGGCGGTACGGTACTTGAAAGGTTTCTCCGGGTTCCATGAATTTGCAGAGTTCACGGCGGAAGATGTTGGAACAAGTGAAAGCGGATTGAATTCTGTTGTTTTGGCCAACAACAGTGAAACTGTTCTGCTCCCCCTCAATGAACCAGTTTATGGCACAAAGCGCAAGAGCCAGATTGAAACATATCTCGAGCACAATGAAGGCGCCGGCGTCCAGCATCTTGCTTTGGTGACTCATGATATCTTCACAACACTTAGGGAGATGAGGAAGAGGAGTTTCCTCGGCGGGTTTGAATTCATGCCCAGTCCCCCGCCGACCTACTATGCAAATCTGCACAACAGGGCTGCAGATGTGCTGACTGTAGACCAGATCAAGCAATGTGAAGAACTTGGAATTTTAGTGGATAGAGACGACCAAGGTACACTACTTCAAATAGCCACCAAACCAGTCGGTGACAGACCAACAATTTGGATCGAGATTATACAAAGAATTGGATGCATGGTCGAGGATGAAGAAGGGAAGGTGTACCAGAAGGGAGCATGTGGTGGTTTTGGGAAAGGAAATTTTTCTGAGCTGTTTAAATCCATCGAGGAATATGAGAAAACCTTAGAAGCTAAAAGAACTGCATGA	9	7	0	0	5	6	4	1	15	35	highly	poorly	Highly	15	9	7	0	0	Poorly	40	Classification and statistics of the grade of pesticide damage: Grade 0 (number of plants) [2, 5]: 4; Classification and statistics of the grade of pesticide damage: Grade 1 (number of plants) [2, 5]: 6; Classification and statistics of the grade of pesticide damage: Grade 2 (number of plants) [2, 5]: 5; Classification and statistics of the grade of pesticide damage: Grade 3 (number of plants) [2, 5]: 1; Resistance evaluation ([3]; mesotrione 52.5 g ai/ha): Moderately; Scores ([3]; mesotrione 52.5 g ai/ha): 23; Grade 0 (classification and statistics of the grade of pesticide damage; number of plants) ([3]; mesotrione 52.5 g ai/ha): 6; Grade 1 (classification and statistics of the grade of pesticide damage; number of plants) ([3]; mesotrione 52.5 g ai/ha): 9; Grade 2 (classification and statistics of the grade of pesticide damage; number of plants) ([3]; mesotrione 52.5 g ai/ha): 1; Grade 3 (classification and statistics of the grade of pesticide damage; number of plants) ([3]; mesotrione 52.5 g ai/ha): 0; Resistance evaluation ([3]; mesotrione 105 g ai/ha): Poorly resistant; Scores ([3]; mesotrione 105 g ai/ha): 46; Grade 0 (classification and statistics of the grade of pesticide damage; number of plants) ([3]; mesotrione 105 g ai/ha): 2; Grade 1 (classification and statistics of the grade of pesticide damage; number of plants) ([3]; mesotrione 105 g ai/ha): 7; Grade 2 (classification and statistics of the grade of pesticide damage; number of plants) ([3]; mesotrione 105 g ai/ha): 6; Grade 3 (classification and statistics of the grade of pesticide damage; number of plants) ([3]; mesotrione 105 g ai/ha): 1
